Assay results published in article PMC8187409, “The zinc-finger protein Red1 orchestrates MTREC submodules and binds the Mtl1 helicase arch domain” (Nature Communications, 2021).

B1: GST-tagged spRed1 peptide (SDKEDGEISEDDP) (peptide)
chain: SDKEDGEISEDDP
notes: source: E. coli (vectors for expression in E. coli)

Columns and labels:
[1] = molecular target: ZZ-ctRed1_(spep) (residues 1040–1091) (Chaetomium thermophilum); test: ITC; MicroCal PEAQ-ITC, 25 °C, 20 mM HEPES pH 7.5, 150 mM NaCl; 30 µM ZZ-ctRed1spep in the cell, 250 µM ctMtr4SA in the syringe; duplicate
[2] = molecular target: T1, full-length spArs2 (in vitro binding) (S. pombe, UniProt O94326 1-609); test: pull-down; GST pull-down: bait with 1.5 molar excess of prey, 20 mM HEPES pH 7.5, 150 mM NaCl (or higher, up to 600 mM or 1.5 M in the washes), 5% glycerol, 0.1% NP-40, 4 °C, glutathione agarose; SDS-PAGE, Coomassie; conditions: both partners purified
T1 construct: Ars2, S. pombe; source: E. coli (vectors for expression in E. coli)
T1 sequence (looked up): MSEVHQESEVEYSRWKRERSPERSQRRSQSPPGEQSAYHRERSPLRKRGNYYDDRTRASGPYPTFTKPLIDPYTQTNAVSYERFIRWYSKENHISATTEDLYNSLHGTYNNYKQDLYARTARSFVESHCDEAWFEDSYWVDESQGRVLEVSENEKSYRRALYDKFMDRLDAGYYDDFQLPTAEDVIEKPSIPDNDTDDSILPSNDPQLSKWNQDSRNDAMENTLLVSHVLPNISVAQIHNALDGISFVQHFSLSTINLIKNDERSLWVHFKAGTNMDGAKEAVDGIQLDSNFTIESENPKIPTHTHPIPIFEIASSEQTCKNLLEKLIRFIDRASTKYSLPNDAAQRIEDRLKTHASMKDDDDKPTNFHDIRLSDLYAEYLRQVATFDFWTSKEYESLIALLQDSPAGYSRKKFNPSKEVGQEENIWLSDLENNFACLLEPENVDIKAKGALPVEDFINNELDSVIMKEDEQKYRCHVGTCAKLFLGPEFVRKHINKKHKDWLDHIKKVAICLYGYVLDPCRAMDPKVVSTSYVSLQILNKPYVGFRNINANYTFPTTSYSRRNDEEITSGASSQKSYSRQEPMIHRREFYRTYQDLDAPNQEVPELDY

| Molecule | Kd [1] [nM] | stoichiometry N [1] | binding result [2] |
| --- | --- | --- | --- |
| ctMtr4SA (residues 654–865), purified for ITC (domain or fragment) | 115 | 1 | – |
| B1 | – | – | binds |
